Among the data in paper PMC3476979 are percent of parent values, retold here.

For the assay, the target named is endogenous phospho-IKKα/β, O15111;O14920. Nature of the assay: co-immunoprecipitation (IP with anti-Tax mab, blot with anti-phospho-IKK), band quantified as Phospho-IKK/Tax. To be noted: 293 T cells, parent: 100.
Turning to “wild-type Tax protein of Human T-lymphotropic virus type 1 (HTLV-1), C-terminal 6His tag (Tax-His) (from UniProt P03409) K1-10R”, the percent of parent came to 3 % WT.

As for “wild-type Tax protein of Human T-lymphotropic virus type 1 (HTLV-1), C-terminal 6His tag (Tax-His) (from UniProt P03409) K4-8R”, the percent of parent was 2 % WT.

Consider “wild-type Tax protein of Human T-lymphotropic virus type 1 (HTLV-1), C-terminal 6His tag (Tax-His) (from UniProt P03409) K6-8R”, for which the percent of parent was found to be 10 % WT. As for “wild-type Tax protein of Human T-lymphotropic virus type 1 (HTLV-1), C-terminal 6His tag (Tax-His) (from UniProt P03409) K7-8R”, the figure is 27 % WT. As for “wild-type Tax protein of Human T-lymphotropic virus type 1 (HTLV-1), C-terminal 6His tag (Tax-His) (from UniProt P03409) K7R”, the figure is 95 % WT; as for “wild-type Tax protein of Human T-lymphotropic virus type 1 (HTLV-1), C-terminal 6His tag (Tax-His) (from UniProt P03409) M22”, less than 1 % WT. Next, “wild-type Tax protein of Human T-lymphotropic virus type 1 (HTLV-1), C-terminal 6His tag (Tax-His) (from UniProt P03409) P79A; Q81A”: 84 % WT.
